Results as given in patent publication US20260137799A1, “ANTI-MUC1* ANTIBODY DRUG COMPLEXES AND USES THEREOF” (Minerva Biotechnologies Corporation, priority 2023, published 2026).

Experiments:
[1] = system: pancreatic cancer specimens; experiment: IHC of tissue microarray, pancreatic cancer; assay type: binding, human; conditions: 40 specimens, antibodies at 15 μg/mL
Excerpt: (§1) Tissue microarrays are typically made up of hundreds of tissue specimens, where each specimen in the array comes from a different patient. The breast cancer array contained patient specimens of all types of invasive breast cancers, including less common forms such as carcinomas with medullary features and papillary carcinomas. The lung cancer array contained specimens from patients diagnosed with squamous cell carcinoma, adenocarcinoma, mucinous adenocarcinoma, adenosquamous carcinoma and large cell carcinoma. The pancreatic cancer tissue microarray contained specimens from patients with ductal adenocarcinomas.
Similar to the lung cancer results, antibody 3C2B1 stained pancreatic cancers better than C2. Of the 40 specimens from 40 different pancreatic cancer patients, 27 were positively stained by C2, 3C2B1, or both. Eighteen (18) stained more robustly with 3C2B1 than C2 or were not stained by C2 at all. One specimen stained slightly better with C2 and 8 specimens stained essentially the same with either antibody.
(§2) Cancerous tissue arrays were purchased from Tissue Array (Derwood, MD). After deparaffinization, antigen retrieval (pH 6.0) was performed for 10 min. The sections incubated in blocking buffer (10% normal goat serum and 5% BSA in TBS) at room temperature for 1 hr before incubating in either C2 or 3C2B1 in 1% BSA-TBS overnight at 4° C. […]

[2] = Toxicity in animal studies; assay type: in vivo; conditions: each antibody incorporated into several ADC formats
Excerpt: Exatecans and deruxtecans can also have bystander effects. […] It is not completely clear whether these side effects are due to the payload or to the HER2 target, which is also expressed on normal lung and normal heart. The first two patients treated with a HER2 targeting CAR T cell product died shortly after the infusion. […] More recently, yet another patient died after being treated with a different HER2-targeting ADC. […] 32CB1, C2 and 20A10 unexpectedly have an extremely high degree of cancer specificity and elicited no toxicities in animal studies, where each antibody was incorporated into several ADC formats.

[3] = molecular target: PSMGFR N-30 (SEQ ID NO: 157) (Homo sapiens, UniProt P15941); experiment: Epitope mapping, binding to PSMGFR N-30 peptide
Excerpt: FIG. 2B quantifies binding of the 3C2B1 anti-MUC1* antibody to the peptides of FIG. 2A.
The 3C2B1 epitope was mapped more precisely with additional PSMGFR peptide variants (FIGS. 2A, 2B).

[4] = system: H1975-MUC1*45 cells; experiment: Antibody internalization (pHrodo Deep Red), H1975-MUC1*45; assay type: cell-based, human
Experimental: Antibodies C2 and 3C2B1 were tested for their ability to be internalized by H1975 lung cancer cells (H1975-wt) and H1975 cells that were engineered to express high levels of a recombinant MUC1* polypeptide with a 45 amino acid extracellular domain (H1975-MUC1*45). In contrast to the T47D breast cancer cells, H1975-wt cells internalized 3C2B1 faster than they internalized C2 (FIGS. 4A1-4A28, 4C1-4C28 and 4E). Two (2) hours post incubation with H1975-wt cells, […] the cells had internalized C2. […] Similar to the T47D cells, MUC1*45 expression increased the internalization rate of C2 and decreased the internalization rate of 3C2B1 (FIGS. 4B1-4B28, 4D1-4D28 and 4E).
Antibodies C2 and 3C2B1 were coupled to a pH sensitive fluorophore using the pHrodo Deep Red TFP Ester kit (Thermo cat #P35356), according to manufacturer instructions. Cancer cells were seeded at ˜50,000 cells/well onto μ-Slide 8-well tissue culture-treated, chambered coverslip wells (Ibidi 80806) in their recommended media with 10% FBS. Cells were cultured for 48 hours. Slides were transferred into microscope chamber (37° C.—5% CO2) and equilibrated for ˜30 minutes. The pHrodo Deep Red coupled antibody was then diluted to a concentration of 200 to 300 μg/mL into pre-warmed media supplemented with 10% FBS. Media was removed from the chamber slides and the diluted antibodies were separately added. Fluorescent (655 nm) and phase contrast images at were collected every 10 min for 12h or 16 h with a Leica Thunder Live Cell 3D microscope.
Internalization of the fluorescently labeled antibodies was quantified as follows. Images were imported into ImageJ. The selection tool was used to draw a region of interest (ROI) on the image. The integrated pixel density (mean gray-scale value×area) was then measured by the ImageJ software. Positively-stained cells were manually counted and the integrated pixel density was divided by the number of positive cells to yield “Pixel Intensity per positive cell”.

[5] = system: breast cancer specimens; experiment: IHC of tissue microarray, breast cancer; assay type: binding, human; conditions: 109 specimens, antibodies at 15 μg/mL
Excerpt: as §1
Of the 109 breast cancer specimens, 56 stained positive with C2, 3C2B1, or both. Twenty-two (22) of the specimens stained robustly with C2 and stained less well or not at all with 3C2B1. The converse, 3C2B1 staining better than C2, was true in only 5 of the 109 specimens. Twenty-nine (29) specimens were stained essentially the same with C2 and 3C2B1 antibody.
as §2, with “C. In this particular assay, both antibodies were used at a concentration of 15 μg/mL.” for “C.”

[6] = system: T47D-MUC1*45 cells; experiment: Antibody internalization (pHrodo Deep Red), T47D-MUC1*45; assay type: cell-based, human
Experimental: Antibodies C2 and 3C2B1 were tested for their ability to be internalized by T47D breast cancer cells (T47D-wt) or T47D cells that were engineered to express high levels of a recombinant MUC1* polypeptide with a 45 amino acid extracellular domain (T47D-MUC1*45), as described in WO2010042562 and WO2010042891. […] C2 internalization was detected within 2.5 hours in T47D-wt cells (FIGS. 3A-3F) and was increased by MUC1*45 expression (FIGS. 3G-3L). […] Unexpectedly, MUC1*45 expression inhibited 3C2B1 internalization (FIG. 3S-3X).
Antibodies C2 and 3C2B1 were coupled to a pH sensitive fluorophore using the pHrodo Deep Red TFP Ester kit (Thermo cat #P35356), according to manufacturer instructions. Cancer cells were seeded at ˜50,000 cells/well onto μ-Slide 8-well tissue culture-treated, chambered coverslip wells (Ibidi 80806) in their recommended media with 10% FBS. Cells were cultured for 48 hours. Slides were transferred into microscope chamber (37° C.—5% CO2) and equilibrated for ˜30 minutes. […]
Internalization of the fluorescently labeled antibodies was quantified as follows. […] The integrated pixel density (mean gray-scale value×area) was then measured by the ImageJ software. Positively-stained cells were manually counted and the integrated pixel density was divided by the number of positive cells to yield “Pixel Intensity per positive cell”.

B1: 3C2B1: anti-MUC1* monoclonal antibody that bound to the PSMGFR peptide (antibody, V domains shown)
VH: EVMLVESGGGLVKPGGSLKLSCAASGITFSTYTMSWVRQTPEKRLEWVATISTGGDKTYYSDSVKGRFTISRDNAKNNLYLQMSSLRSEDTALYYCARGTTAMYYYAMDYWGQGTSVTVSS
VL: DIVLTQSPASLAVSLGQRATISCRASKSISTSDYNYIHWYQQKPGQPPKLLIYLASNLESGVPARFSGSGSGTDFTLNIHPVEEEDAATYYCQHSRELPLTFGAGTKLELK
3C2B1 > C2 (number of specimens stained better with 3C2B1) [1]: 18 | toxicities in animal studies [2]: no toxicities | binding to N-30 variant PSMGFR peptide [3]: bound | time by which essentially all the cells had internalized the antibody ([4]; H1975-MUC1*45 cells): 8 h | effect of MUC1*45 expression on internalization rate ([4]; H1975-MUC1*45 vs H1975-wt): decreased | 3C2B1 > C2 (number of specimens stained better with 3C2B1) [5]: 5 | effect of MUC1*45 expression on internalization ([6]; T47D-MUC1*45 vs T47D-wt): inhibited | fraction of cells that internalized detectable antibody ([6]; T47D-MUC1* cells, after 14 hours): Less than half
